The assay deals with C10A mutant of Arabidopsis thaliana cytochrome c1, soluble domain (Arabidopsis thaliana). Kind of assay: BLI; His6-tagged Cc1 (50 ug/mL) immobilised on Ni-NTA biosensors (Octet RED 96e); Cc at 0.3215-10 uM; 10 mM sodium phosphate pH 7.4, 0.01 uM rabbit serum albumin, 0.01% Triton X-100; both proteins reduced; wavelength shift at equilibrium fitted to a non-linear equation with a linear non-specific term; in duplicate. In general terms: Biolayer interferometry detects binding as a change in optical thickness at a sensor tip.
For “human cytochrome c K8Q acetyl-mimetic mutant (from UniProt P99999 1-105) (natural protein)”, the Kd came to 99 nM.
As to “human cytochrome c K53Q acetyl-mimetic mutant (from UniProt P99999 1-105) (natural protein)”, the Kd turned out to be 116 nM.
For “human cytochrome c, wild-type (from UniProt P99999 1-105) (natural protein)” the value was 137 nM.

As usually defined, the Kd is the free concentration of one partner at which half of the binding sites on the other are occupied at equilibrium, for simple one-to-one binding.

The values are drawn from article PMC8634867.
